Substitutions are numbered along the chain they refer to.

What all share (conditions): label: Alexa680 at 5' and 3'
Data set [1] has as its target T1, hPUF_MT(R2_N12S,Q16R, R3→R5, R4→R6) (R2 repeat N12S,Q16R).
T1 chain: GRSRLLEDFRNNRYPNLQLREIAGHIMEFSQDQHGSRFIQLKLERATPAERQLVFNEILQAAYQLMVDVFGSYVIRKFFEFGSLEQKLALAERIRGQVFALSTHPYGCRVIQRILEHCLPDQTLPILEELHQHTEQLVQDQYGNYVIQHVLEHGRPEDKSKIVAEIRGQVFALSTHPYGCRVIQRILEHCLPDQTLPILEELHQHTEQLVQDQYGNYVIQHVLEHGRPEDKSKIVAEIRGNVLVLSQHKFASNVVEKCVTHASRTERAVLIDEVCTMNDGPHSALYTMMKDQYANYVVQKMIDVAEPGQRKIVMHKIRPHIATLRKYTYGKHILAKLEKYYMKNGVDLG
Briefly: EMSA; binds C exclusively.

The target in data set [2] is T2, hPUF_MT(R8_N12S,Q16E, R3→R5, R4→R6) (R8 repeat N12S,Q16E).
T2 chain: T1 chain with S72N, R76Q, N295S, Q299E
Briefly: EMSA; binds G exclusively.

Data set [3] addresses T3, hPUF_MT(R2_N12S,Q16E, R3→R5, R4→R6) (R2 repeat N12S,Q16E).
T3 chain: T1 chain with R76E
Briefly: EMSA; binds G exclusively. A general note: Mobility shift assays separate free from complexed probe on a gel.

Data set [4] deals with T4, hPUF_MT(R7_S12N,E16Q, R3→R5, R4→R6) (R7 repeat S12N,E16Q).
T4 chain: T1 chain with S72N, R76Q, S252N, E256Q
Kind of data set: EMSA; binds U exclusively.

The next data set deals with T5, hPUF_MT(R7_IRG) (UniProt Q14671 SEQ:1-342).
T5 chain: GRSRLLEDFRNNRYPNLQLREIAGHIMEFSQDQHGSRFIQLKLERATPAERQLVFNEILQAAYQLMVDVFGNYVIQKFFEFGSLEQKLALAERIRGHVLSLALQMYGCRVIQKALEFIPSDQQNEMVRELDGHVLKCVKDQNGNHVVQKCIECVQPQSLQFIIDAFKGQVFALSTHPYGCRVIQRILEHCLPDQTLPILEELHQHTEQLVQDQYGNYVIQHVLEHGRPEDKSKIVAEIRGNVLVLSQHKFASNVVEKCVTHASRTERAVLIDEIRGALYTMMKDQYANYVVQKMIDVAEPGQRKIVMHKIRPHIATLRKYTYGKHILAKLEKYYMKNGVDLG
Briefly: EMSA; comparable to WT.

The next data set addresses T6, hPUF_MT(R7_ILQ) (UniProt Q14671 SEQ:1-342).
T6 chain: T5 chain with R275L, G276Q
Kind of data set: EMSA; comparable to WT.

The target of data set [5] is human PUM1 PUF domain wild type (hPUF WT) (UniProt Q14671 SEQ:1-349). Briefly: EMSA; reference; 4 C, 100 mM NaCl, 1 mM EDTA, pH 7.5. On the procedure: Each purified protein was diluted to a desired concentration with Binding Buffer, mixed with a binding buffer and Ribonuclease Inhibitor, Cloned (Invitrogen), and then, mixed with the RNA probe at a final concentration of 0.5 nM. […] A binding reaction was performed at 4° C. for 30 min. Subsequently, the solution was gently mixed by pipetting. A binding reaction was performed again at 4° C. for […].
The solution obtained after the binding reaction was applied to 6% a non-denaturing polyacrylamide gel, followed by electrophoresis at 4° C. and 200 V. When the electrophoresis marker (2 μL of 6×Dye+10 μL of 1×binding buffer) moved by 0.5 cm, the voltage was changed to 100 V, and electrophoresis was continuously performed until the electrophoresis marker moved by 3 cm. Finally, RNA was detected with Odyssey.

B1: OTS-1511 (ssRNA)
RNA: CCAGAAUUGUAUAUAUUCG
B1: the binding result in data set [1] is “no binding”; in data set [2], “no binding”; in data set [3], “no binding”; in data set [4] it was “no binding”; with hPUF_MT(R7_IRG) it was “binds”; with hPUF_MT(R7_ILQ), “binds”. For the same molecule, the binding result in data set [5] is given as “binds”.

These data come from US11472855, “RNA-binding protein” (Panitch Schwarze Belisario & Nadel LLP).
